Results reported in US20230228751 (APTAMER DIAGNOSTICS LIMITED, published 2023).
Residue numbers refer to the chain shown, from its start.

B1: S1_D11-B (ssDNA)
DNA: CCAGTGTAGACTACTCAATGCCGGCCGGGAGGGAGGGGTGGGTAAAGCCGCGCAACATATAGTACTATCCACAGGTCAACC
B2: S1_E3 (ssDNA)
DNA: CCAGTGTAGACTACTCAATGCCGATGGGTCGGGTGGGTGGGTAGGCATTGATCGCTCCTCCGTACTATCCACAGGTCAACC
B3: S1_A3-B (ssDNA)
DNA: CCAGTGTAGACTACTCAATGCCGATGGGTCGGGGGGGTGGGTAGGCATTGATCGCTCCTTTCGTACTATCCACAGGTCAACC
B4: S1_C1-A (ssDNA)
DNA: CCAGTGTAGACTACTCAATGCTGTGTTGACTTGATCCTGTGGTATTTGGGTGGGAGGGGCGGGTACTATCCACAGGTCAACC
B5: S1_C8 (ssDNA)
DNA: B3 DNA with G54A, C55T
B6: S1_B12-B (ssDNA)
DNA: B4 DNA with T46A, G59A, C60T
B7: S1_C3-A (ssDNA)
DNA: CCAGTGTAGACTACTCAATGCTGTGTTGACTTGATCCTGTGGCATATGGGTGGGAGGGCGGGTACTATCCACAGGTCAACC
B8: S1_D6 (ssDNA)
DNA: CCAGTGTAGACTACTCAATGCTACTGACTCATCTGCCGAATCCAAACCCGACCAGTCCACGGTACTATCCACAGGTCAACC
B9: S1_E5 (ssDNA)
DNA: CCAGTGTAGACTACTCAATGCCACCTCCTTTTCCGTTTCTTGTATCATGCTACTATCCTGTGTACTATCCACAGGTCAACC
B10: S1_E6 (ssDNA)
DNA: CCAGTGTAGACTACTCAATGCCCAGTGGCGAGCGACTTTTTATGTAAGAACATCGATTTTCCATGGTACTATCCACAGGTCAACC
B11: S1_A3_F11 (ssDNA)
DNA: CCAGTGTAGACTACTCAATGCGTGGGAAGGGTGGGTGGGAGCATTGATAACTC
B12: S1_A3_F12 (ssDNA)
DNA: CCAGTGTAGACTACTCAATGCGTGGGAAGGGTGGGTGGGAGCATTGATAACTCGGAGGAGTGTA
B13: S1_A8_F12 (ssDNA)
DNA: CCAGTGTAGACTACTCAATGCTGTGTTGACTTGATCCTGTGGTATATGGGTGGGAGGGTCGGGT
B14: S1_A8_F13 (ssDNA)
DNA: AATGCTGTGTTGACTTGATCCTGTGGTATATGGGTGGGAGGGTCGGGTACTATCCACAGGTCAAC
B15: S1_A8_F14 (ssDNA)
DNA: ACTTGATCCTGTGGTATATGGGTGGGAGGGTCGGGTACTATCCACAGGTCAAC
B16: S1_A6_F12 (ssDNA)
DNA: CCAGTGTAGACTACTCAATGCTGTTATGACTTGACCTTGGGTTATGGGTTTGGGCGGGAGGGTA
B17: S1_A6_F13 (ssDNA)
DNA: AATGCTGTTATGACTTGACCTTGGGTTATGGGTTTGGGCGGGAGGGTACTATCCACAGGTCAACC
B18: S1_A6_F14 (ssDNA)
DNA: ACTTGACCTTGGGTTATGGGTTTGGGCGGGAGGGTACTATCCACAGGTCAACC
B19: S1_A1-A (ssDNA)
DNA: B3 DNA with G34T, T61C
B20: S1_A1-B (ssDNA)
DNA: CCAGTGTAGACTACTCAATGCGGCTGTGTGACTTGACCTCTGGATATGGGAGGGAGGGCGGGTACTATCCACAGGTCAACC
B21: S1_A4 (ssDNA)
DNA: CCAGTGTAGACTACTCAATGCGTGGGAAGGGTGGGCGGGAGCATTGATAACTCGGAGGAGCGTACTATCCACAGGTCAACC
B22: S1_A9 (ssDNA)
DNA: CCAGTGTAGACTTACACCTGCAGTGTTCACGAGGGCCGGCGGTATATGGGCGGTTGATACGAGTACTATCCACAGGTCAACC
B23: S1_A12 (ssDNA)
DNA: CCAGTGTAGACTACTCAATGCCGTGTGGTGACCTTGATCCTGTGGTATATGGGTGGGAGGGGCGGGTACTATCCACAGGTCAACC
B24: S1_B1 (ssDNA)
DNA: B2 DNA with C61A
B25: S1_B3 (ssDNA)
DNA: B3 DNA with C53T, G54C
B26: S1_B4 (ssDNA)
DNA: B7 DNA with C43T, C59A
B27: S1_B9 (ssDNA)
DNA: B7 DNA with C43T
B28: S1_B11-A (ssDNA)
DNA: CCAGTGTAGACTACTCAATGCGTGTGGTGACCTTGACCTTGGATTATGGGTTTGGGCGGGAGGGTACTATCCACAGGTCAACC
B29: S1_C1-B (ssDNA)
DNA: CCAGTGTAGACTACTCAATGCCGCTTCTCGACCGCCCCTTGTTTTGGTTCTTTTGTCCGTAGTACTATCCACAGGTCAACC
B30: S1_C2 (ssDNA)
DNA: CCAGTGTAGACTACTCAATGCGGCTGTGTGACTTGACCTCTGGATATGGGTGGGAGGGATGGGTACTATCCACAGGTCAACC

The binders below were run against SARS-CoV-2 spike S1 subunit (SARS-CoV-2, UniProt P0DTC2 SEQ:1-670) (assay: BLI). Conditions: tags: His tag, SinoBiological 40591-V08B1; label: 5'-biotin.
B1: binds.
B2: binds.
B3: binds.
B4: binds.
B5: binds.
B6: no binding.
B7: no binding.
B8: no binding.
B9: no binding.
B10: no binding.
CCAGTGTAGACTACTCAATGCGTGGGAAGGGTGGGTGGGA (ssDNA) [S1_A3_F9]: binds.
CCAGTGTAGACTACTCAATGCGTGGGAAGGGTGGGTGGGAGCATTGAT (ssDNA) [S1_A3_F10]: binds.
B11: binds.
B12: binds.
AATGCGTGGGAAGGGTGGGTGGGAG (ssDNA) [S1_A3_F17]: binds.
GTATATGGGTGGGAGGGTCGGGTACTATCCACAGGTCAAC (ssDNA) [S1_A8_F2]: binds.
B13: binds.
B14: binds.
B15: binds.
ACTTGATCCTGTGGTATATGGGTGGGAGGGTCGGGT (ssDNA) [S1_A8_F20]: binds.
GGTATATGGGTGGGAGGGTCGGGT (ssDNA) [S1_A8_F22]: binds.
B16: binds.
B17: binds.
B18: binds.
B19: binds.
B20: binds.
B21: binds.
B22: binds.
B23: binds.
B24: binds.
B25: binds.
B26: binds.
B27: binds.
B28: binds.
B29: binds.
B30: binds.

Each binder was assayed against SARS-CoV-2 spike RBD (SARS-CoV-2, UniProt P0DTC2 SEQ:1-223) (assay: BLI). Conditions: tags: His tag, SinoBiological 40592-V08H; label: 5'-biotin.
B1: binds.
B2: binds.
B6: binds.
B7: binds.
B8: binds.
B9: binds.
B10: binds.

Same assay, conditions: tags: His tag; SinoBiological 40592-V08H; label: 5' biotin
B3: binds.
B4: binds.
B5: binds.
B19: binds.
B20: binds.
B21: binds.
B22: binds.
B23: binds.
B24: binds.
B25: binds.
B26: binds.
B27: binds.
B28: binds.
B29: binds.
B30: binds.

These binders were tested against SARS-CoV spike S1 subunit (SARS-CoV, UniProt P59594 SEQ:14-667) (assay: BLI). Conditions: tags: SinoBiological; label: 5' biotin.
B6: no binding.
B7: no binding.
B8: no binding.
B9: no binding.
B10: no binding.
B19: no binding.
B20: no binding.
B21: no binding.
B22: no binding.
B23: no binding.
B24: no binding.
B25: no binding.
B26: no binding.
B27: no binding.
B28: no binding.
B29: no binding.
B30: no binding.

Same assay, conditions: tags: SinoBiological; label: 5'-biotin
B1: binds.
B2: no binding.
B3: no binding.
B4: no binding.
B5: no binding.
